Experimental data from patent US20230125561A1 (published 2023).

Biological target: SARS-CoV-2 Spike S1 protein, B.1.351 (S. African) variant (SARS-CoV-2, UniProt P0DTC2 16-685)
Experiment: ELISA

B1: Neumifil (HEX17: trimeric (hexavalent) form based on S. pneumoniae CBM40) (designed binder)
chain: GAMVIEKEDVETNASNGQRVDLSSELDKLKKLENATVHMEFKPDPKAPAFYNLFSVSSATKKDEYFTMAVYNNTATLEGRGSDGKQFYNNYNDAPLKVKPGQWNSVTFTVEKPTAELPKGRARLYVNGGLSRTSLRSGNFIKDMPDVTHVQIGATKRANNTVWGSNLQIRNLTVYNRALTPEEVQKRSGGGSGVIEKEDVETNASNGQRVDLSSELDKLKKLENATVHMEFKPDPKAPAFYNLFSVSSATKKDEYFTMAVYNNTATLEGRGSDGKQFYNNYNDAPLKVKPGQWNSVTFTVEKPTAELPKGRARLYVNGGLSRTSLRSGNFIKDMPDVTHVQIGATKRANNTVWGSNLQIRNLTVYNRALTPEEVQKRSGGSLGVPDFESDWFDVSSNSLYTLSHGLQRSPRRVVVEFARSSSPSTWNIVMPSYFNDGGHKGSGAQVEVGSLNIKLGTGAAVWGTGYFGGIDNSATTRFATGYYRVRAWI
EC50: 0.17 µg/mL
